According to PMC3142331 (Molecular cell, 2011):
Each block holds one binder with its values, some of them ahead of it. Square brackets hold non-standard residues; d marks the D form. Ends that are not written are not given here. fluorescein = fluorescein label (fluorescent) on the peptide N-terminus; pS = N[C@@H](COP(=O)(O)O)C(=O)O

Key:
[1] = biological target: tetraheptad CTD-Ser5-PO4 peptide (phosphorylated at Ser5 (CTD-Ser5-PO4)); assay: cell-based or functional assay
[2] = biological target: T1, fluorescein labeled phosphorylated CTD peptide (Fluor-S2P3T4S5PP6S7Y1S2PP3T4S5); assay: fluorescence polarisation
T1 peptide: fluorescein-SPT[pS]PSY[pS]PTS

B1: Mce R330A (domain or fragment)
chain: not shown
fold stimulation of guanylylation by CTD Ser5-PO4 [1]: 2.1 fold

B2: Mce R330A/K331A (domain or fragment)
chain: not shown
fold stimulation of guanylylation by CTD Ser5-PO4 [1]: 1.9 fold

B4: Mce R330A/K331A/R386A (domain or fragment)
chain: not shown
fold stimulation of guanylylation by CTD Ser5-PO4 [1]: 1.6 fold

B5: Mce C383Y (domain or fragment)
chain: not shown
fold decrease in affinity against wild-type Mce [2]: 1.9 fold

Second part, the binder after the results:

fold stimulation of guanylylation in the presence of CTD Ser5-PO4 [1]: 5.9 fold
B3: Mce-C375R (domain or fragment)
chain: not shown

fold reduction of affinity against wild-type Mce [2]: ~1.8 fold
B6: Mce-K294A (domain or fragment)
chain: not shown
